Measurements taken from PMC11602552 (The Journal of Experimental Medicine, 2024).

Biological target: wild type eIF6 (eIF6^WT), purified (UniProt O55135 1-245)
Test: SPR

Kd: 1470 nM
B1: Nsun2, purified (enzyme)
chain: MGRRARGRRFQQPPQPEGEEDASDGGRKRGQAGWEGGYPEIVKENKLFEHYYQELKIVPEGEWDQFMESLREPLPATLRITGYKSHAKEILHCLKNKYFKELEDLEVDGQKVEVPQPLSWYPEELAWHTNLSRKILRKSPLLAKFHQFLVSETESGNISRQEAVSMIPPLLLNVEPHHKILDMCAAPGSKTTQLIEMLHADMSVPFPEGFVIANDVDNKRCYLLVHQAKRLSSPCIMVVNHDASSIPRLTVDVDGRKEILFYDRILCDVPCSGDGTMRKNIDVWKKWTTLNSLQLHGLQLRIATRGAEQLAEGGRMVYSTCSLNPVEDEAVIAALLEKSEGALELADVSAELPGLKWMPGVSQWKVMTRDGQWFADWHEVPQGRHTQIRPTMFPPTDLEKLQAMHLERCLRILPHHQNTGGFFVAVLVKKAPMPWNKRQPKVQNKSAEAREPRVSSHVAATEGNPSDQSELESQMITGAGDSETAHNTENTESNEKKDGVCGPPPSKKMKLFGFKEDPFVFIPEDDPLFPPIEKFYALDPSFPRMNLLTRTTEGKKRQLYMVSKELRNVLLNNSEKMKVINTGIKVWCRNNSGEEFDCAFRLAQEGIYTLYPFINSRIITVSMEDVKTLLTQENPFFRKLSSEAYSQVKDLAKGSVVLKYEPDSANPDTLQCPIVLCGWRGKASIRTFVPKNERLHYLRMMGLEVLGEKKKEGVILTNENAASPEQPGDEDAKQTAQDPCVPDSVPGCDAAAAEPSR
